{
  "source": "patent US20260242839A1",
  "about": "“GLYCOSIDE PRODUCT BIOSYNTHESIS AND RECOVERY” (Manus Bio Inc., priority 2023, published 2026)",
  "molecules": {"B1": {"name": "SEQ ID NO: 79: PgUGT94_B1 (Panax ginseng) (protein)", "chain": "MADNQNGRISIALLPFLAHGHISPFFELAKQLAKRNCNVFLCSTPINLSSIKDKDSSASIKLVELHLPSSPDLPPHYHTTNGLPSHLMLPLRNAFETAGPTFSEILKTLNPDLLIYDFNPSWAPEIASSHNIPAVYFLTTAAASSSIGLHAFKNPGEKYPFPDFYDNSNITPEPPSADNMKLLHDFIACFERSCDIILIKSFRELEGKYIDLLSTLSDKTLVPVGPLVQDPMGHNEDPKTEQIINWLDKRAESTVVFVCFGSEYFLSNEELEEVAIGLEISTVNFIWAVRLIEGEKKGILPEGFVQRVGDRGLVVEGWAPQARILGHSSTGGFVSHCGWSSIAESMKFGVPVIAMARHLDQPLNGKLAAEVGVGMEVVRDENGKYKREGIAEVIRKVVVEKSGEVIRRKARELSEKMKEKGEQEIDRALEELVQICKKKKDEQ", "modifications": "Panax ginseng"}, "B2": {"name": "SEQ ID NO: 78: OsJUGT_1,6 (Oryza sativa) (protein, listed as Oryza sativa)", "chain": "MAQAERERLRVLMFPWLAHGHINPYLELATRLTTTSSSQIDVVVHLVSTPVNLAAVAHRRTDRISLVELHLPELPGLPPALHTTKHLPPRLMPALKRACDLAAPAFGALLDELSPDVVLYDFIQPWAPLEAAARGVPAVHFSTCSAAATAFFLHFLDGGGGGGGRGAFPFEAISLGGAEEDARYTMLTCRDDGTALLPKGERLPLSFARSSEFVAVKTCVEIESKYMDYLSKLVGKEIIPCGPLLVDSGDVSAGSEADGVMRWLDGQEPGSVVLVSFGSEYFMTEKQLAEMARGLELSGAAFVWVVRFPQQSPDGDEDDHGAAAARAMPPGFAPARGLVVEGWAPQRRVLSHRSCGAFLTHCGWSSVMESMSAGVPMVALPLHIDQPVGANLAAELGVAARVRQERFGEFEAEEVARAVRAVMRGGEALRRRATELREVVARRDAECDEQIGALLHRMARLCGKGTGRAAQLGH"}, "B3": {"name": "SEQ ID NO: 75: CeUGT_1,6 (Coffea eugenioides) (protein, listed as Coffea sp.)", "chain": "MAENHATFNVLMLPWLAHGHVSPYLELAKKLTARNFNVYLCSSPATLSSVRSKLTEKFSQSIHLVELHLPKLPELPAEYHTTNGLPPHLMPTLKDAFDMAEPNFCNVLKSLKPDLLIYDLLQPWAPEAASAFNIPAVVFISSSATMTSFGLHFFKNPGTKYPYGNTIFYRDYESVFVENLKRRDRDTYRVVNCMERSSKIILIKGFKEIEGKYFDYFSCLTGKKVVPVGPLVQDPVLDDEDCRIMQWLNKKEKGSTVFVSFGSEYFLSKEDMEEIAHGLELSNVDFIWVVRFPKGENIVIEETLPKGFFERVGERGLVVNGWAPQAKILTHPNVGGFVSHCGWNSVMESMKFGLPIIAMPMHLDQPINARLIEEVGAGVEVLRDSKGKLHRERMAETINKVTKEASGESVRKKARELQEKLELKGDEEIDDVVKELVQLCATKNKRNGLHYN"}, "B4": {"name": "SEQ ID NO: 29: OsUGT1-2 (Oryza sativa) (protein, listed as Oryza sativa)", "chain": "MDSGYSSSYAAAAGMHVVICPWLAFGHLLPCLDLAQRLASRGHRVSFVSTPRNISRLPPVRPALAPLVAFVALPLPRVEGLPDGAESTNDVPHDRPDMVELHRRAFDGLAAPFSEFLGTACADWVIVDVFHHWAAAAALEHKVPCAMMLLGSAHMIASIADRRLERAETESPAAAGQGRPAAAPTFEVARMKLIRTKGSSGMSLAERFSLTLSRSSLVVGRSCVEFEPETVPLLSTLRGKPITFLGLMPPLHEGRREDGEDATVRWLDAQPAKSVVYVALGSEVPLGVEKVHELALGLELAGTRFLWALRKPTGVSDADLLPAGFEERTRGRGVVATRWVPQMSILAHAAVGAFLTHCGWNSTIEGLMFGHPLIMLPIFGDQGPNARLIEAKNAGLQVARNDGDGSFDREGVAAAIRAVAVEEESSKVFQAKAKKLQEIVADMACHERYIDGFIQQLRSYKD"}, "B5": {"name": "SEQ ID NO: 77: SgUGT94-289-3.2 (Siraitia grosvenorii) (protein)", "chain": "MADAAQQGDTTTILMLPWLGYGHLSAFLELAKSLSRRNFHIYFCSTSVNLDAIKPKLPSSFSDSIQFVELHLPSSPEFPPHLHTTNGLPPTLMPALHQAFSMAAQHFESILQTLAPHLLIYDSLQPWAPRVASSLKIPAINFNTTGVFVISQGLHPIHYPHSKFPFSEFVLHNHWKAMYSTADGASTERTRKRGEAFLYCLHASCSVILINSFRELEGKYMDYLSVLLNKKVVPVGPLVYEPNQDGEDEGYSSIKNWLDKKEPSSTVFVSFGSEYFPSKEEMEEIAHGLEASEVNFIWVVRFPQGDNTSGIEDALPKGFLERAGERGMVVKGWAPQAKILKHWSTGGFVSHCGWNSVMESMMFGVPIIGVPMHVDQPFNAGLVEEAGVGVEAKRDPDGKIQRDEVAKLIKEVVVEKTREDVRKKAREMSEILRSKGEEKFDEMVAEISLLLKI"}, "B6": {"name": "SEQ ID NO: 60: UGT_1,6 (Coffea Arabica) (protein, listed as Coffea arabica)", "chain": "MENHATFNVLMLPWLAHGHVSPYLELAKKLTARNFNVYLCSSPATLSSVRSKLTEKFSQSIHLVELHLPKLPELPAEYHTTNGLPPHLMPTLKDAFDMAKPNFCNVLKSLKPDLLIYDLLQPWAPEAASAFNIPAVVFISSSATMTSFGLHFFKNPGTKYPYGNAIFYRDYESVFVENLTRRDRDTYRVINCMERSSKIILIKGFNEIEGKYFDYFSCLTGKKVVPVGPLVQDPVLDDEDCRIMQWLNKKEKGSTVFVSFGSEYFLSKKDMEEIAHGLEVSNVDFIWVVRFPKGENIVIEETLPKGFFERVGERGLVVNGWAPQAKILTHPNVGGFVSHCGWNSVMESMKFGLPIIAMPMHLDQPINARLIEEVGAGVEVLRDSKGKLHRERMAETINKVMKEASGESVRKKARELQEKLELKGDEEIDDVVKELVQLCATKNKRNGLHYY"}, "B7": {"name": "SEQ ID NO: 39: SgUGT94-289-1 (Siraitia grosvenorii) (protein)", "chain": "MDAQRGHTTTILMFPWLGYGHLSAFLELAKSLSRRNFHIYFCSTSVNLDAIKPKLPSSSSSDSIQLVELCLPSSPDQLPPHLHTTNALPPHLMPTLHQAFSMAAQHFAAILHTLAPHLLIYDSFQPWAPQLASSLNIPAINFNTTGASVLTRMLHATHYPSSKFPISEFVLHDYWKAMYSAAGGAVTKKDHKIGETLANCLHASCSVILINSFRELEEKYMDYLSVLLNKKVVPVGPLVYEPNQDGEDEGYSSIKNWLDKKEPSSTVFVSFGSEYFPSKEEMEEIAHGLEASEVHFIWVVRFPQGDNTSAIEDALPKGFLERVGERGMVVKGWAPQAKILKHWSTGGFVSHCGWNSVMESMMFGVPIIGVPMHLDQPFNAGLAEEAGVGVEAKRDPDGKIQRDEVAKLIKEVVVEKTREDVRKKAREMSEILRSKGEEKMDEMVAAISLFLKI"}},
  "data": [
    {"test_system": "Mog. IIE or Mog. IE", "test": "branched glycosylation reactions by cells expressing UGT enzymes", "type": "cell-based, E. coli", "conditions": "Mog. IIE or Mog. IE fed; 37° C., 48 hr; LC-MS/MS", "protocol": "Mog. IIE or Mog. IE was fed to cells expressing various UGT enzymes. Reactions were incubated at 37° C. for 48 hr. Products were quantified by LC-MS/MS with authentic standards of each compound. “Indirect” evidence means that consumption of substrate was observed.", "values": [
      {"molecule": "B1", "C3 1-2": "No", "C3 1-6": "No", "C24 1-2": "No", "C24 1-6": "Yes"},
      {"molecule": "B2", "C3 1-2": "No", "C3 1-6": "No", "C24 1-2": "Yes", "C24 1-6": "No"},
      {"molecule": "B3", "C3 1-2": "Yes", "C3 1-6": "Yes", "C24 1-2": "Yes", "C24 1-6": "Yes"},
      {"molecule": "B4", "C3 1-2": "No", "C3 1-6": "No", "C24 1-2": "No", "C24 1-6": "Yes"},
      {"molecule": "B5", "C3 1-2": "No", "C3 1-6": "Yes", "C24 1-2": "No", "C24 1-6": "Yes"},
      {"molecule": "B6", "C3 1-2": "No", "C3 1-6": "Yes", "C24 1-2": "Yes", "C24 1-6": "Yes"},
      {"molecule": "B7", "C3 1-2": "No", "C3 1-6": "Yes", "C24 1-2": "Yes", "C24 1-6": "Yes"}
    ]}
  ]
}
